Publication doi:10.1101/2021.10.06.463398, “Disruption of nucleoid expanded conformation by toxic aberrant proteins synthesized in Escherichia coli” (bioRxiv, 2021)
The star is where a group is joined. FITC = O=C1OC2(c3ccc(O)cc3Oc3cc(O)ccc32)c2ccc(NC(=S)*)cc21

B1: KL peptide, FITC-TEKAKLVIKLLALGKTEQ-NH2 (KL decapeptide of ARF48 with flanking extensions) (peptide)
peptide: {FITC}-TEKAKLVIKLLALGKTEQ-NH2
notes: ARF48 is a 48-residue product of the +1 alternate reading frame of Arabidopsis thaliana cDNA At3G62370, not a natural protein), C-terminal extension KTEQ; The core decapeptide is not part of a natural protein: it is an alternate-reading-frame translation product; also called synthetic KL decapeptide; source: synthetic peptide (Peptide 2.0, Inc.)
B2: NR peptide, FITC-TEKANRLLLTGKTEQ-NH2 (canonical DnaK peptide substrate NRLLLTG with flanking extensions) (peptide)
peptide: {FITC}-TEKANRLLLTGKTEQ-NH2
notes: N-terminal extension TEKA, canonical DnaK substrate heptapeptide NRLLLTG, C-terminal extension KTEQ; source: synthetic peptide (Peptide 2.0, Inc.)

Molecular target: T1, 6His-DnaK (E. coli molecular chaperone DnaK) (E. coli, UniProt P0A6Y8 1-638)
T1 construct: No tag removal is described; also called purified E. coli DnaK protein; source: E. coli, ASKA expression clone, purified (Ni-NTA agarose)
T1 sequence (P0A6Y8 whole entry): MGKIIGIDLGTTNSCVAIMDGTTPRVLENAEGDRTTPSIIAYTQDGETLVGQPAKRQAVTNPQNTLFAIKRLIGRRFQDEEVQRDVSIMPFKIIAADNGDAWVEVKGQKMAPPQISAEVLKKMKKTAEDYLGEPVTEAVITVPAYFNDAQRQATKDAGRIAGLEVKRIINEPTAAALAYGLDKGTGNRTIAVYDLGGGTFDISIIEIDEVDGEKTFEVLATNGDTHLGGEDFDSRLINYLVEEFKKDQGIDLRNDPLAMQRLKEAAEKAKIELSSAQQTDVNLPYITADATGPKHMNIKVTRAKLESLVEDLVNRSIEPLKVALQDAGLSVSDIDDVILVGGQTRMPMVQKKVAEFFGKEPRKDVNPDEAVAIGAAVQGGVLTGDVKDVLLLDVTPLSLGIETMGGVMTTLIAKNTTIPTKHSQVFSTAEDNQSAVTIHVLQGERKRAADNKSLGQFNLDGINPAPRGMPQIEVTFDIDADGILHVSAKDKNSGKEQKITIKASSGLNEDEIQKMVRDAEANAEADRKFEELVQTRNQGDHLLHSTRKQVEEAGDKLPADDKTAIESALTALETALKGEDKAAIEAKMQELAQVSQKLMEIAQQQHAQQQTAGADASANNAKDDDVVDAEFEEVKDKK
Experiment: MST; 20 nM fluorescein-labelled peptide with varying concentrations of DnaK; MST buffer (50 mM Tris pH 7.4, 150 mM NaCl, 10 mM MgCl2, 0.05% Tween-20, 0.05% bovine serum albumin); 1 h at 20°C; Monolith NT.115
Conditions: both partners purified

Row | Binder | binding result
1 | B1 | binds
2 | B2 | binds
